B1: Zinc finger MYM-type protein 2, residues 463 to 506; numbered along this chain, Q9UBW7 (parent)
chain: IMNCCEQCGEYLPSKGAGNNVLVIDGQQKRFCCQSCVSEYKQVG

For 58 variants, abundance fitness results are on record in the Human Domainome abundance scans (Beltran et al. 2025).

± gives the uncertainty stated by the source.

In the series the parent is B1. Nature of the series: abundance fitness (aPCA) (normalised: wild type 0, dead -1); higher = more abundant; growth selection in yeast, the domain comes from the species named. The note with it: Homo sapiens.
For the variant IMNCCEQCGEYLPSKGAGNNVLVIDGQQKRFCCQSCVSETKQVG [Y40T], the abundance fitness amounted to 0.11 ± 0.11.

With IMNCCEQCGEYLPSKGAGNNVLVIDGQQKRFCCQSCVSENKQVG [Y40N], the abundance fitness is -0.309 ± 0.39. For IMNCPEQCGEYLPSKGAGNNVLVIDGQQKRFCCQSCVSEYKQVG [C5P] the value was -0.854 ± 0.13; for IMNCTEQCGEYLPSKGAGNNVLVIDGQQKRFCCQSCVSEYKQVG [C5T], -0.587 ± 0.13; for IMNCWEQCGEYLPSKGAGNNVLVIDGQQKRFCCQSCVSEYKQVG [C5W], -1.5 ± 0.12. For IMNCCEQCGEYLPSKGKGNNVLVIDGQQKRFCCQSCVSEYKQVG [A17K], the abundance fitness is -0.521 ± 0.16. As for IMNCCEQCGEYLPSKGPGNNVLVIDGQQKRFCCQSCVSEYKQVG [A17P], the abundance fitness was -0.274 ± 0.11.

On to IMNCCEQWGEYLPSKGAGNNVLVIDGQQKRFCCQSCVSEYKQVG [C8W], for which the abundance fitness was -1.41 ± 0.12.

Consider IMNCCEQFGEYLPSKGAGNNVLVIDGQQKRFCCQSCVSEYKQVG [C8F], for which the abundance fitness was -1.18 ± 0.18. For IMNCCEQSGEYLPSKGAGNNVLVIDGQQKRFCCQSCVSEYKQVG [C8S] the value was -0.337 ± 0.1; for IMNCCEQEGEYLPSKGAGNNVLVIDGQQKRFCCQSCVSEYKQVG [C8E], -0.307 ± 0.097; for IMNCCEQMGEYLPSKGAGNNVLVIDGQQKRFCCQSCVSEYKQVG [C8M], -1.1 ± 0.23. Then IMNCCEQYGEYLPSKGAGNNVLVIDGQQKRFCCQSCVSEYKQVG [C8Y], with -0.311 ± 0.48.

Take IMNCCEQCGEYLPSKGAGNNVLVIDGQQKRFCCQSCVSMYKQVG [E39M]: the abundance fitness is 0.087 ± 0.13. With IMNCCEQCGEYLPSKGAGNNVLVIDGQQKRFCCQSCVSTYKQVG [E39T], the abundance fitness came out at 0.093 ± 0.13. IMNCCEQCGEYLPSKGAGNNVLVIDGQQKRFCCQSCVTEYKQVG [S38T]: the abundance fitness is -0.113 ± 0.12. For IMNCCEQCGEYLPSKGAGNNVLVIDGQQKRFCCQSCVCEYKQVG [S38C] the value was -0.108 ± 0.14; for IMNCCEQCGEYLPSKGAGNNVLVIDGQQKRFTCQSCVSEYKQVG [C32T], -0.433 ± 0.085.

Consider IMNCCEQCGEYLPSKGAGNNVLWIDGQQKRFCCQSCVSEYKQVG [V23W], for which the abundance fitness was -0.063 ± 0.086. Then IMNCCEQCGEYLPSKGAGNNVLEIDGQQKRFCCQSCVSEYKQVG [V23E], with 0.204 ± 0.12. For RMNCCEQCGEYLPSKGAGNNVLVIDGQQKRFCCQSCVSEYKQVG [I1R] the value was -0.255 ± 0.094; for FMNCCEQCGEYLPSKGAGNNVLVIDGQQKRFCCQSCVSEYKQVG [I1F], -0.307 ± 0.13. Take NMNCCEQCGEYLPSKGAGNNVLVIDGQQKRFCCQSCVSEYKQVG [I1N]: the abundance fitness came to 0.097 ± 0.1.

WMNCCEQCGEYLPSKGAGNNVLVIDGQQKRFCCQSCVSEYKQVG [I1W]: the abundance fitness is -0.746 ± 0.13. Then YMNCCEQCGEYLPSKGAGNNVLVIDGQQKRFCCQSCVSEYKQVG [I1Y], with -0.402 ± 0.21; and IMNCCEQCGEYLPSKGAGNNVLVIDGQQKRFCCQGCVSEYKQVG [S35G], with 0.024 ± 0.077; and IMNCCEQCGEYLPSKGAGNNVLVIDGQQKRFCCQPCVSEYKQVG [S35P], with -0.058 ± 0.13. Then IMNCCEQCGEYLPSKGAGNNVLVIDGQQKRFCCQACVSEYKQVG [S35A], with -0.072 ± 0.074; and IMNCCEQCGEYLPSKGAGNNVLVIDGQQKRFCCQECVSEYKQVG [S35E], with 0.006 ± 0.1. As for IMNCCEQCGEYLPSKGAGNNVLVIDGQQKRFCCQSCVSEYPQVG [K41P], the abundance fitness turned out to be 0.014 ± 0.083. Regarding IMNCCEQCGEYLPSKGAGNNVLVIDGQQKRFCCQSCVSEYQQVG [K41Q], the abundance fitness was 0.006 ± 0.092. Regarding IMVCCEQCGEYLPSKGAGNNVLVIDGQQKRFCCQSCVSEYKQVG [N3V], the abundance fitness was -0.366 ± 0.1.

Take IMGCCEQCGEYLPSKGAGNNVLVIDGQQKRFCCQSCVSEYKQVG [N3G]: the abundance fitness was -0.119 ± 0.076. For the variant IMNCCEQCGEYLPSKGAWNNVLVIDGQQKRFCCQSCVSEYKQVG [G18W], the abundance fitness was -0.197 ± 0.092.

In the case of IMNCCEQCGEYLPSKGAGNNVLVIDDQQKRFCCQSCVSEYKQVG [G26D], the abundance fitness turned out to be 0.183 ± 0.34. Then IMNCCEQCGEYLPSKGAGNNVLVIDMQQKRFCCQSCVSEYKQVG [G26M], with -0.384 ± 0.15; and IMNCCEQCGEYLCSKGAGNNVLVIDGQQKRFCCQSCVSEYKQVG [P13C], with 0.105 ± 0.43.

Consider IMNCCEQCGEYLSSKGAGNNVLVIDGQQKRFCCQSCVSEYKQVG [P13S], for which the abundance fitness is -0.207 ± 0.12. For IMNCCEQCGEYLLSKGAGNNVLVIDGQQKRFCCQSCVSEYKQVG [P13L] the value was -0.438 ± 0.2; for IMNCCEQCGEYLPSKGAGNNVLVKDGQQKRFCCQSCVSEYKQVG [I24K], -0.079 ± 0.1; for IMNCCEQCGEYLPSKGAGNNVLVNDGQQKRFCCQSCVSEYKQVG [I24N], -0.176 ± 0.2. For IMNCCEQCCEYLPSKGAGNNVLVIDGQQKRFCCQSCVSEYKQVG [G9C] the value was -0.148 ± 0.12; for IMNCCEQCKEYLPSKGAGNNVLVIDGQQKRFCCQSCVSEYKQVG [G9K], -0.511 ± 0.11. Then IMNCCEQCVEYLPSKGAGNNVLVIDGQQKRFCCQSCVSEYKQVG [G9V], with -0.563 ± 0.083; and IMNCCEQCGEYLPSKGAGNNVDVIDGQQKRFCCQSCVSEYKQVG [L22D], with 0.001 ± 0.17; and IMNCCEQCGEYLPSKGAGNNVYVIDGQQKRFCCQSCVSEYKQVG [L22Y], with 0.165 ± 0.14. Take IMNCCEQCGEYLPSKGAGNNVGVIDGQQKRFCCQSCVSEYKQVG [L22G]: the abundance fitness was -0.132 ± 0.068.

On to IMNCCEQCGEYLPSKGAGNNVEVIDGQQKRFCCQSCVSEYKQVG [L22E], for which the abundance fitness turned out to be 0.015 ± 0.1.

Consider IMNCCEQCGEYLPSKGAGNNVQVIDGQQKRFCCQSCVSEYKQVG [L22Q], for which the abundance fitness is -0.057 ± 0.13. Then IMNCCEQCGEYLPRKGAGNNVLVIDGQQKRFCCQSCVSEYKQVG [S14R], with -0.456 ± 0.089.

Consider IMNCCEQCGEYLPMKGAGNNVLVIDGQQKRFCCQSCVSEYKQVG [S14M], for which the abundance fitness is -0.361 ± 0.12. Then IMNCCEQCGEYLPDKGAGNNVLVIDGQQKRFCCQSCVSEYKQVG [S14D], with 0.241 ± 0.13. For IMNCCVQCGEYLPSKGAGNNVLVIDGQQKRFCCQSCVSEYKQVG [E6V], the abundance fitness is -0.256 ± 0.1.

For IMNCCEQCGEYLPSKGAGNNVLVIDGQQKRFCHQSCVSEYKQVG [C33H], the abundance fitness is -0.09 ± 0.12. Then IMNCCEQCGEYLPSKGAGNNVLVIDGQQKRFCAQSCVSEYKQVG [C33A], with -0.017 ± 0.093; and IMNCCEQCGEYLPSKGAGNNMLVIDGQQKRFCCQSCVSEYKQVG [V21M], with -0.103 ± 0.11; and IMNCCEQCGEYLPSKGAGNNNLVIDGQQKRFCCQSCVSEYKQVG [V21N], with -0.397 ± 0.47.

On to IMNCCEQCGEYLPSKGAGNNWLVIDGQQKRFCCQSCVSEYKQVG [V21W], for which the abundance fitness is -0.02 ± 0.11.
